{
  "source": "paper PMC6536115",
  "proteins": {"B1": {"name": "Monocarboxylate transporter 1 (MCT1) (Mus musculus) (protein)", "chain": "MPPAIGGPVGYTPPDGGWGWAVLVGAFISIGFSYAFPKSITVFFKEIEVIFSATTSEVSWISSIMLAVMYAGGPISSILVNKYGSRPVMIAGGCLSGCGLIAASFCNTVQELYLCIGVIGGLGLAFNLNPALTMIGKYFYKKRPLANGLAMAGSPVFLSTLAPLNQAFFDIFDWRGSFLILGGLLLNCCVAGSLMRPIGPEQVKLEKLKSKESLQEAGKSDANTDLIGGSPKGEKLSVFQTINKFLDLSLFTHRGFLLYLSGNVVMFFGLFTPLVFLSSYGKSKDFSSEKSAFLLSILAFVDMVARPSMGLAANTKWIRPRIQYFFAASVVANGVCHLLAPLSTTYVGFCVYAGVFGFAFGWLSSVLFETLMDLIGPQRFSSAVGLVTIVECCPVLLGPPLLGRLNDMYGDYKYTYWACGVILIIAGIYLFIGMGINYRLLAKEQKAEEKQKREGKEDEASTDVDEKPKETMKAAQSPQQHSSGDPTEEESPV"}},
  "substrate": "C[C@H](O)C(=O)O",
  "test": "cells, lysate or membranes",
  "conditions": "proton",
  "data": [
    {"protein": "B1", "values": [
      {"measurement": "Km", "value": "3.88 ± 0.86", "unit": "mM"},
      {"measurement": "Vmax", "value": 0.414, "unit": "µmol/min/mg"}
    ]}
  ]
}
